Data: US20120003296A1, “NEW METHODS OF TREATING DRY EYE SYNDROME” (priority 2010, published 2012)

How the values were obtained:
[1] = test system: dry mouth and dry eyes conditions; test: ADT (Sialor) orally and/or as eye drops in dry mouth and dry eyes; assay type: in vivo; conditions: 25 mg orally and/or ophthalmic drops; chemotherapy patients, menopausal women, chronic smokers
Protocol: Another drug available is an organo sulfur compound, anethole dithiolethione (ADT, 5-[p-methoxyphenyl]-3H-1,2-dithiol-3-thione, trade name Sialor™) with hardly any side effects. It stimulates the secretion of saliva in patients with autoimmune exocrinopathy (e.g. Sjogren's syndrome). Sialor alleviates the symptoms of xerostomia and xeroophthalmia. We have used Sialor, 25 mg orally and/or ophthalmic drops with successes in these conditions especially those on chemotherapy, menopausal women, and chronic smokers with dry mouth and dry eyes conditions. ADT increases the glutathione synthesis by activating gamma-glutamyl-cysteine synthetase. ADT reduced both polymorphonuclear neutrophils adhesion to ROS (reactive oxygen species—can be effective in post perfusion adhesion of white blood cells to ROS with resultant damage) and stimulated tyrosine phosphorylation.
Another drug available to treat KCS is a organo sulfur compound, anethole dithiolethione (ADT—trade name Sialor) with hardly any side effects. It stimulates the secretion of saliva, in patients with autoimmune exocrinopathy (Sjogren's syndrome). Sialor alleviates the symptoms of xerostomia and xeroophthalmia. […]

Wurzburg cells = conditions: cited from earlier work
dry eye [2] = conditions: ophthalmic drops, compared to artificial tears or testosterone; cited from earlier work
[3] = relative to testosterone; cited from earlier work
dry eye syndrome [4] = test: MSM mixed with insulin as eye drops; assay type: in vivo; conditions: aqueous MSM mixed with insulin, chemotherapy, allergic eyes, contact lens wearers
Excerpt: Methylsulfonylmethane (MSM), is an organosulfur compound with the formula (CH3)2SO2, a metabolite of DMSO. It is also known by several other names: DMSO2, MSM, Methylsulfonylmethane, methyl sulfone, and dimethyl sulfone. It is marketed as dietary supplement and also used for osteoarthritis, allergic rhinitis, interstitial cystitis, and throat spray for snoring. Stanley W. Jacob, M.D., of the Oregon Health and Science University, reports using MSM to treat over 18,000 patients with a assortment of ailments (MSM the Definitive Guide: The Nutritional Breakthrough for Arthritis, Allergies and More. Freedom Press. 2003. ISBN 9781893910225. http://www.amazon.com/MSM-Definitive-Guide-Nutritional-Breakthrough/dp/1893910229). It is soluble in water, and a good solvent like DMSO. We have used aqueous solutions of MSM, filtered and sterilized and mixed with insulin and used as eye drops to treat dry eye syndrome during chemotherapy, allergic conditions of the eyes and contact lens wearers with good results.

dry eye [5] = conditions: 2% suspension, versus baseline; cited from earlier work
[6] = test system: scleroderma and systemic lupus erythematosus; conditions: with insulin
dry eye syndrome [7] = test: Therapeutic activity against dry eye syndrome; assay type: in vivo; conditions: incl. KCS, Sjogren's syndrome, MGD
Excerpt: Also, the terminology used herein is for the purpose of description and not of limitation.

[8] = in vivo; cited from earlier work
[9] = local application incl. conjunctival sac, scalp, gums, mucosa, wounds
Excerpt: The present invention formulation contains only 0.05 IU per drop which can be increased in severe disease states.

pain = test: Trigger point and joint injection of local anesthetic with insulin; assay type: in vivo; conditions: local anesthetic with insulin versus injectate without insulin
Excerpt: Trigger points or trigger sites are described as hyperirritable spots in skeletal muscle that are associated with palpable nodules in taut bands of muscle fibers whose compression may elicit local tenderness, referred pain, or local twitch response. There are many therapies to take away the tenderness and sore spots.

[10] = test system: advanced and localized cancers; test: Insulin followed by chemotherapeutic agents injected into cancer masses; assay type: in vivo; conditions: insulin followed by anticancer chemotherapeutic agents, direct injection
Excerpt: Our study of injecting Insulin followed by anticancer chemotherapeutic agents directly into cancer masses on hundreds of advanced and localized cancers supports these finding also. […] We treated multiple brain cancer patients by directly injecting insulin with mannitol followed by with specific anti tumor Chemo-therapeutic agents with dextrose and heparin directly infused into the internal carotid artery with positive results. Patients lived longer with good quality of life with less side effects to the chemotherapy agents.

musculoskeletal pain = test: Prolotherapy injectate with insulin; assay type: in vivo; conditions: with insulin versus prolotherapy agent alone
Excerpt: The inventors have used glucose along with insulin and lidocaine in our prolotherapy injectate for various musculoskeletal pain, including arthritis, back pain, neck pain, fibromyalgia, sports injuries, unresolved whiplash injuries, carpal tunnel syndrome, chronic tendonitis, partially torn tendons, ligaments and cartilage, degenerated or herniated discs, TMJ pain and sciatica. It is important to note the principle of prolotherapy is to induce fibroblasts to multiply and lay more ligaments (collagen); make the ligaments and tendons stronger inducing sterile inflammation at the site. Insulin can enhance the multiplication of fibroblasts by these prolotherapy and other sterile inflammatory therapeutic agents to make ligaments stronger. […] Insulin increased the fibroblast mitosis and thus increased production of collage to strengthen the ligaments of the painful joint giving long lasting fast pain relief with stronger functional joints. When insulin is therapeutically effective ever in taking away the pain by various prolotherapy therapeutic agents, one can see how effective it is in treating the dry eye syndrome and associated diseases of the eye.

[11] = test system: MCF-7 human breast cancer cells; conditions: in vitro, MCF-7 cells, methotrexate in presence of insulin; cited from earlier work
indolent ulcers = test: Local insulin on ulcers and tooth extraction wounds; assay type: in vivo; conditions: insulin spray, anywhere in the body incl. oral and nasal cavity
Excerpt: (§1) The present inventors have used insulin for more than a decade to enhance the effectiveness of locally injected therapeutic agents especially cancers with chemotherapeutic agents with remarkable results. […] It stimulated the fibroblast, endothelial cell, angiogenesis and skin cell growth resulting accelerated wound healing.

[12] = as above; assay type: in vivo; conditions: insulin soaked cotton swabs, 1-3 units in normal saline
Excerpt: as §1

Compound: COc1ccc(-c2cc(=S)ss2)cc1 [ADT, 5-[p-methoxyphenyl]-3H-1,2-dithiol-3-thione]
- treatment outcome in dry mouth and dry eyes conditions [1]: successes
- H2O2 induced lipid peroxidation (Wurzburg cells; ADT pretreatment of Wurzburg cells): remarkably inhibited
- glutathione levels (Wurzburg cells; compared with untreated Wurzburg cells): rises glutathione levels significantly

Compound: C[C@]12CC[C@H](O)CC1=CC[C@@H]1[C@@H]2CC[C@]2(C)C(=O)CC[C@@H]12 [DHEA, dehydroepiandrosterone]
- subjective patient response (dry eye [2]): felt better
- androgenic activity of testosterone [3]: 5%

Compound: CS(C)(=O)=O [MSM, Methylsulfonylmethane]
- treatment outcome in dry eye syndrome (dry eye syndrome [4]): good results

Compound: O=C(NC(Cc1cc(=O)[nH]c2ccccc12)C(=O)O)c1ccc(Cl)cc1 (stereo not drawn) [Rebamipide]
- fluorescein corneal staining (dry eye [5]): decreased from baseline
- subjective parameters such as gritty/sandy sensation and burning/pain (dry eye [5]): decreased from baseline

Compound: O=P1(N(CCCl)CCCl)NCCCO1 (stereo not drawn) [cyclophosphamide, Cyclophosphamide]
- treatment outcome in scleroderma and systemic lupus erythematosus [6]: very successfully

Compound: IGF-1: Insulin-like Growth factor (IGF-1), which has insulin like effects
- therapeutic activity against dry eye syndrome (dry eye syndrome [7]): high therapeutic activity

Compound: Insulin aspart
- Onset of Action in hours [8]: ¼-½

Compound: Insulin detemir
- Effective duration of action [8]: 14 h
- Maximum duration [8]: ~20 h
- Onset of Action [8]: 3 to 4 h
- Peak action in hours [8]: 6 to 8 h

Compound: Insulin glargine
- Effective duration of action [8]: 18 to 20 h
- Maximum duration [8]: 20 to 24 h
- Onset of Action [8]: 3 to 4 h
- Peak action in hours [8]: 8 to 16 h

Compound: Insulin glulisine
- Onset of Action in hours [8]: ¼-½

Compound: Insulin lispro
- Onset of Action in hours [8]: ¼-½

Compound: NPH (isophane): intermediate-acting insulin
- Effective duration of action [8]: 10 to 16 h
- Maximum duration [8]: 14 to 18 h
- Onset of Action [8]: 2 to 4 h
- Peak action in hours [8]: 6 to 10 h

Compound: Regular (soluble): short-acting insulin
- Effective duration of action [8]: 3 to 6 h
- Maximum duration [8]: 6 to 8 h
- Peak action in hours [8]: 2 to 3 h

Compound: insulin
- blood sugar levels (hypoglycemic effects) [9]: did not change the blood sugar levels
- relief of pain (pain): rapid and effective relief of pain
- palpable tumors including enlarged lymph nodes [10]: literally melted away
- effectiveness of prolotherapy (musculoskeletal pain): more effective
- increase of the cytotoxic effect of methotrexate [11]: up to 10,000 fold
- therapeutic activity against dry eye syndrome (dry eye syndrome [7]): high therapeutic activity
- healing of indolent ulcers (indolent ulcers): augmented the healing
- healing after teeth extraction [12]: rapid healing with reduced pain
